The supplement of paper PMC10567573

B1: TRIB1 (parent)
chain: SYVRSRKRLREEEAARLFKQIVSA
B2: CD207 (parent)
chain: MTVEKEAPDAHFTVDKQNISLWPR

Variants of: B1
Experiment: protein stability index of a GFP-peptide fusion (GPS, HEK-293T) (PSI 1-6); higher = more stable
Details: c terminus: a fixed tail appended
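Note: lentivirally expressed fusions sorted by FACS into six bins by GFP to DsRed ratio, PSI derived from sequencing read proportions per bin multiplied by bin number.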

| Variant | protein stability index |
| --- | --- |
| R16T | 2.57 |
| R16I | 1.37 |
| R16N | 2.58 |
| R16V | 2.53 |
| K19I | 2.91 |
| K19N | 1.7 |
| K19C | 2.34 |
| K19E | 2.06 |
| R10C | 1.5 |
| R10Y | 1.95 |
| R10D | 2.28 |
| R10Q | 2.22 |
| R10A | 2.94 |
| R10N | 2.54 |
| S23M | 2.87 |
| L9R | 2.07 |
| L9M | 3.22 |
| L9S | 2.44 |
| L9T | 2.24 |
| Y2I | 1.78 |
| Y2K | 2.14 |
| Y2F | 1.54 |
| Y2V | 2.33 |
| Y2S | 1.9 |

| Variant | protein stability index |
| --- | --- |
| E13A | 1.27 |
| E13F | 2.37 |
| E13Q | 2.5 |
| E13Y | 2.14 |
| E13H | 2.47 |
| R4F | 1.22 |
| R4M | 2.12 |
| R4V | 2.28 |
| E12P | 2.03 |
| E12K | 2.27 |
| E12H | 3.01 |
| E12Y | 2.37 |
| E12Q | 1.98 |
| E12V | 1.33 |
| S1M | 1.82 |
| S1K | 2.98 |
| A14K | 2.64 |
| A14F | 2.34 |
| A14P | 2.56 |
| A14C | 2.24 |
| V22F | 1.83 |
| V22C | 2.13 |
| V22M | 2.45 |
| V22P | 3.72 |

| Variant | protein stability index |
| --- | --- |
| V22A | 2.58 |
| I21Q | 2.06 |
| I21T | 3.48 |
| I21S | 3.66 |
| I21D | 4.08 |
| I21E | 3.23 |
| I21M | 2.47 |
| I21P | 3.76 |
| Q20S | 2.27 |
| Q20W | 1.46 |
| Q20M | 2.17 |
| Q20I | 1.43 |
| Q20T | 2.37 |
| A24F | 2.26 |
| A24C | 2.99 |
| A24D | 2.76 |
| A24V | 2.61 |
| A24N | 3.37 |
| A24W | 2 |
| K7C | 2.34 |
| K7F | 2.12 |
| K7S | 2.53 |
| K7Y | 1.93 |
| E11F | 3.54 |

| Variant | protein stability index |
| --- | --- |
| E11P | 1.85 |
| F18L | 1.52 |
| F18P | 3.99 |
| F18E | 3.02 |
| F18N | 3.1 |
| F18V | 2.86 |
| F18Q | 4.07 |
| F18M | 3.34 |
| F18S | 3.42 |
| F18H | 4.19 |
| F18T | 3.84 |
| S5D | 2.24 |
| S5Y | 2.65 |
| S5F | 2.4 |
| S5T | 2.21 |
| S5C | 1.62 |
| S5E | 1.39 |
| R6Q | 1.88 |
| R6S | 2.21 |
| R6P | 2.66 |
| R6N | 1.81 |
| R6A | 1.89 |
| V3S | 2.36 |
| V3L | 2.08 |

| Variant | protein stability index |
| --- | --- |
| V3H | 1.22 |
| V3G | 1.3 |
| V3T | 2.12 |
| V3E | 1.83 |
| R8D | 1.78 |
| R8L | 2.03 |
| R8F | 1.48 |
| R8I | 2.3 |
| R8A | 2.3 |
| R8W | 1.95 |
| L17C | 2.52 |
| L17M | 2.03 |
| A15N | 2.48 |
| A15I | 1.4 |
| A15C | 1.93 |
| A15S | 2.36 |
| A15Q | 2.15 |
| A15K | 1.96 |
| A15P | 3.43 |
| A15M | 2.68 |
| A15G | 2.56 |

Variants of: B2
Experiment: as above
Details: c terminus: a fixed tail appended

| Variant | protein stability index |
| --- | --- |
| R24C | 3.16 |
| R24P | 3.28 |
| R24I | 2.9 |
| R24T | 3.63 |
| R24Y | 2.83 |
| R24L | 2.95 |
| R24A | 3.98 |
| R24E | 4.83 |
| R24G | 3.72 |
| R24S | 3.57 |
| R24M | 2.24 |
| R24N | 4.12 |
| R24V | 3.07 |
| R24Q | 3.97 |
| R24H | 3.69 |
| R24F | 3.42 |
| R24W | 2.78 |
| R24K | 3.87 |
| R24D | 4.53 |
| V14T | 3.82 |
| V14F | 2.42 |
| V14C | 3.27 |
| V14S | 3.81 |
| V14Y | 2.48 |
| V14Q | 3.85 |

| Variant | protein stability index |
| --- | --- |
| V14M | 3.18 |
| V14P | 3.79 |
| V14I | 3.45 |
| V14A | 3.45 |
| V14E | 3.79 |
| V14R | 3.05 |
| V14K | 3.41 |
| V14G | 2.35 |
| V14H | 3.13 |
| V14W | 2.65 |
| V14D | 4.11 |
| V14N | 3.36 |
| V14L | 2.93 |
| K16P | 3.26 |
| K16F | 2.95 |
| K16Q | 3.01 |
| K16W | 2 |
| K16R | 3.26 |
| K16E | 4.13 |
| K16D | 3.35 |
| K16L | 2.62 |
| K16I | 2.39 |
| K16H | 3.53 |
| K16C | 3.76 |
| K16A | 3.52 |

| Variant | protein stability index |
| --- | --- |
| K16V | 2.93 |
| K16M | 2.83 |
| K16T | 3.18 |
| K16N | 3.49 |
| K16G | 3.8 |
| K16Y | 2.83 |
| K16S | 3.79 |
| L21T | 3.01 |
| L21Q | 3.85 |
| L21I | 3.79 |
| L21M | 3.81 |
| L21C | 3.64 |
| L21F | 3.25 |
| L21H | 4.06 |
| L21N | 3.43 |
| L21R | 3.7 |
| L21W | 3.12 |
| L21D | 4.22 |
| L21P | 4.11 |
| L21V | 3.09 |
| L21Y | 3.39 |
| L21K | 3.72 |
| L21S | 3.53 |
| Q17A | 3.66 |
| Q17N | 2.97 |

| Variant | protein stability index |
| --- | --- |
| Q17F | 1.89 |
| Q17L | 2.64 |
| Q17P | 3.21 |
| Q17G | 3.38 |
| Q17E | 3.26 |
| Q17R | 2.76 |
| Q17S | 2.31 |
| Q17V | 2.39 |
| Q17Y | 1.94 |
| Q17T | 3.14 |
| Q17I | 2.48 |
| Q17K | 3.36 |
| Q17C | 2.8 |
| Q17D | 3.73 |
| Q17M | 2.15 |
| Q17H | 3.05 |
| Q17W | 1.56 |
| D15K | 2.81 |
| D15M | 2.67 |
| D15N | 2.54 |
| D15Q | 3.17 |
| D15F | 2.06 |
| D15G | 2.92 |
| D15C | 3.35 |
| D15Y | 1.98 |

| Variant | protein stability index |
| --- | --- |
| D15S | 3.61 |
| D15A | 3.35 |
| D15P | 2.74 |
| D15R | 3.06 |
| D15T | 2.74 |
| D15I | 2.31 |
| D15E | 3.51 |
| D15H | 2.48 |
| P23C | 2.69 |
| P23I | 2.91 |
| P23A | 3.39 |
| P23M | 2.84 |
| P23Q | 3.14 |
| P23H | 2.9 |
| P23T | 2.93 |
| P23F | 2.71 |
| P23S | 2.64 |
| P23D | 4.51 |
| P23Y | 2.62 |
| P23E | 3.84 |
| P23K | 3.69 |
| P23G | 3 |
| P23L | 2.62 |
| P23N | 3.82 |
| P23W | 2.52 |

| Variant | protein stability index |
| --- | --- |
| P23R | 3.43 |
| T13Y | 3.59 |
| T13W | 2.54 |
| T13D | 3.96 |
| T13F | 3.13 |
| T13H | 3.03 |
| T13M | 3.12 |
| T13R | 2.66 |
| T13L | 4.19 |
| T13K | 3.61 |
| T13I | 3.49 |
| T13G | 3.04 |
| T13S | 3.8 |
| T13P | 3.19 |
| T13N | 3.63 |
| T13Q | 3.43 |
| T13V | 3.42 |
| I19T | 3.79 |
| I19C | 3.76 |
| I19M | 3.67 |
| I19F | 4.08 |
| I19L | 3.35 |
| I19K | 4.35 |
| I19G | 3.13 |
| I19E | 4.47 |

| Variant | protein stability index |
| --- | --- |
| I19Q | 3.84 |
| I19N | 4.39 |
| I19H | 4.29 |
| I19P | 4 |
| I19V | 3.98 |
| I19S | 3.45 |
| I19R | 3.99 |
| I19Y | 3.41 |
| I19D | 4.22 |
| I19A | 4.25 |
| W22G | 4.35 |
| W22H | 4.21 |
| W22P | 4.64 |
| W22L | 4.42 |
| W22R | 4.1 |
| W22D | 4.85 |
| W22V | 4.32 |
| W22E | 5.08 |
| W22Q | 4.29 |
| W22C | 4.08 |
| W22A | 4.63 |
| W22K | 4.99 |
| W22T | 4.34 |
| W22Y | 3.83 |
| W22S | 4.69 |

| Variant | protein stability index |
| --- | --- |
| W22N | 4.4 |
| W22F | 3.91 |
| W22I | 4.73 |
| W22M | 4.19 |
| N18D | 3.21 |
| N18L | 2.88 |
| N18G | 3 |
| N18F | 3 |
| N18I | 1.95 |
| N18T | 3.62 |
| N18Y | 2.97 |
| N18C | 2.44 |
| N18S | 3.56 |
| N18R | 3.14 |
| N18E | 3.34 |
| N18A | 4.24 |
| N18K | 3.4 |
| N18H | 3.46 |
| N18P | 3.39 |
| N18Q | 2.86 |
| N18W | 2.05 |
| N18V | 2.29 |
| N18M | 3.5 |
| S20D | 4.04 |
| S20K | 3.55 |

| Variant | protein stability index |
| --- | --- |
| S20M | 2.81 |
| S20G | 3.29 |
| S20C | 3.39 |
| S20F | 3.04 |
| S20N | 3.07 |
| S20E | 3.33 |
| S20P | 3.3 |
| S20Y | 2.69 |
| S20V | 2.71 |
| S20A | 3.3 |
| S20H | 3.2 |
| S20Q | 3.1 |
| S20R | 3.3 |
| S20I | 2.66 |
| S20L | 2.48 |
| S20W | 2.96 |
| S20T | 3.43 |
